Here are results for one sequence from patent publication US20120322862.

In this series the target is 4-1BB (TNFRSF9) extracellular domain (Homo sapiens) (UniProt Q07011). In words: competition. Particulars: all dT replaced by TrpdU (5-(N-tryptaminocarboxyamide)-2'-deoxyuridine); all C 5-methyl-dC; inhibition of 4-1BB ligand capture by receptor on Protein A beads (co-IP); PBS/0.02% Tween-20, 37 C.

Usually IC50 stands for the concentration needed to halve the response being measured. Low readings indicate higher potency, high ones lower potency. Take “CCTGCACCCAGTGTCCCNGANGGGGNNNNNNAGNNGNANNNNGNAANGGNGGANGNNGANGGAGAGGAGGANGG [1684-40]”: the IC50 amounted to 0.81 nM.
